Results as given in US20080138339A1.

Target: OC183B2 (antigens associated with ovarian carcinoma) (human)
Experiment: indirect ELISA of phage-displayed scFv

binding activity relative to negative control: 2.5 times
B1: anti-ovarian carcinoma scFv antibody (scFv)
scFv: EVQLQESGPEVKKPGETVRISCKASGYTFTTAGMQWVQKMPGKGLKWLGWINTNSEVPKYAEDFRGRFAFSLETSASTAYLQISNLKNEDTATFFCARSFTWGTMDYWGQGTTVTVSSGGGGSGGGGSGGGGSDVVMTQTPLSLPVSLGDQASISCRSSQTLVHSIGNTYLHWYLQKPGQSPKLLIYKVSNRFSGVPDRFSGSGSGTDFTLKISRVEAEDLGVYFCSQSTHVPYTFGGGTKLELK
